Target: T1, gH ectodomain, FLAG-tagged and lacking its transmembrane anchor (gHecto^F_TBopt) (human cytomegalovirus (HCMV) strain TB40, UniProt P12824 24-709)
T1 sequence: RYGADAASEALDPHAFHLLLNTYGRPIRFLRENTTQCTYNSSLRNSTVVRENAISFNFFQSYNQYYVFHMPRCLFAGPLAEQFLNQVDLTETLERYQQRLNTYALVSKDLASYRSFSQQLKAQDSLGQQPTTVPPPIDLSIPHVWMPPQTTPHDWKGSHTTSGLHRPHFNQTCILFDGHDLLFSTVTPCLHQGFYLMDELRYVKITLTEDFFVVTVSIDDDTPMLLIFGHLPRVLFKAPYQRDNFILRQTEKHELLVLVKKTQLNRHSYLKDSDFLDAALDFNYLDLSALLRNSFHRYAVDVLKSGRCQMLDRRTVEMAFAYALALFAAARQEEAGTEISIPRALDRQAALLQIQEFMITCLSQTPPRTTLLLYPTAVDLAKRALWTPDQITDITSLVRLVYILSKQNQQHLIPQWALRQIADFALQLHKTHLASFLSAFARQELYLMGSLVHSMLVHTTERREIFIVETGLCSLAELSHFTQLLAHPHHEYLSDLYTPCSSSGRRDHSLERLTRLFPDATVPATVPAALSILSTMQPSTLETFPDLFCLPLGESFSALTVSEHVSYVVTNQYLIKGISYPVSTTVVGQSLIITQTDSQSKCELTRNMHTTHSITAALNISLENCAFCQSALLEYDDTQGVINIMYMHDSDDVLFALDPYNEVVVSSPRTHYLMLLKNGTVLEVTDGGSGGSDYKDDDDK
Test: His-tag purification from Expi293F supernatant after co-expression, Western blot (FIG. 2B)

B1: octahistidine-tagged UL141 ectodomain (UL141ecto_3C His) (other)
chain: DIAEKMWAENYETTSPAPVLVAEGEQVTIPCTVMTHSWPMVSIRARFCRSHDGSDELILDAVKGHRLMNGLQYRLPYATWNFSQLHLGQIFSLTFNVSTDTAGMYECVLRNYSHGLIMQRFVILTQLETLSRPDEPCCTPALGRYSLGDQIWSPTPWRLRNHDCGMYRGFQRNYFYIGRADAEDCWKPACPDEEPDRCWTVIQRYRLPGDCYRSQPHPPKFLPVTPAPPADIDTGMSPWATR
notes: extracellular domain; not shown: C-terminal '3C' site and octahistidine tag
B1: binds.
